From patent publication US20140363428A1 (Chugai, published 2014)

Target: T1, soluble human FcRn (human, UniProt P55899 24-297; P61769 21-119)
T1 construct: Heterodimer of alpha chain and beta2-microglobulin; also called hFcRn
Experiment: SPR (Biacore), pH 7.0, 25 C;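 also: antibodies captured on a protein L-coated CM4 chip with human FcRn injected as analyte, KD obtained from ka and kd fitted to sensorgrams, in sodium phosphate buffer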
Description: An appropriate amount of protein L (ACTIGEN) was immobilized onto Sensor chip CM4 (GE Healthcare) by the amino coupling method, and the chip was allowed to capture an antibody of interest. Then, diluted FcRn solutions and running buffer (as a reference solution) were injected to allow human FcRn to interact with the antibody captured on the sensor chip. The running buffer used comprised 50 mmol/l sodium phosphate, 150 mmol/l NaCl, and 0.05% (w/v) Tween20 (pH 7.0). FcRn was diluted using each buffer. The chip was regenerated using 10 mmol/l glycine-HCl (pH 1.5). Assays were carried out exclusively at 25 degrees C. The association rate constant ka (1/Ms) and dissociation rate constant kd (1/s), both of which are kinetic parameters, were calculated based on the sensorgrams obtained in the assays, and KD (M) of each antibody for human FcRn was determined from these values. Each parameter was calculated using Biacore T100 Evaluation Software (GE Healthcare).

Binder | Kd [µM]
IgG1-F1365 (antibody) heavy: QVQLQESGPGLVKPSETLSLTCAVSGHSISHDHAWSWVRQPPGEGLEWIGFISYSGITNYNPSLQGRVTISRDNSKNTLYLQMNSLRAEDTAVYYCARSLARTTAMDYWGEGTLVTVSSASTKGPSVFPLAPSSKSTSGGTAALGCLVKDYFPEPVTVSWNSGALTSGVHTFPAVLQSSGLYSLSSVVTVPSSSLGTQTYICNVNHKPSNTKVDKKVEPKSCDKTHTCPPCPAPELRGGPKVFLFPPKPKDTLYISREPEVTCVVVDVSHEDPEVKFNWYVDGVEVHNAKTKPREEQYNSTYRVVSVLTVLHQDWLNGKEYKCKVSNKALPAPIEKTISKAKGQPREPQVYTLPPSRDELTKNQVSLTCLVKGFYPSDIAVEWESNGQPENNYKTTPPVLDSDGSFFLYSKLTVDKSRWQQGNVFSCSVMHEALDYHTTKKELSLSP light: not shown | 0.31
IgG1-F1411 (antibody) heavy: QVQLQESGPGLVKPSETLSLTCAVSGHSISHDHAWSWVRQPPGEGLEWIGFISYSGITNYNPSLQGRVTISRDNSKNTLYLQMNSLRAEDTAVYYCARSLARTTAMDYWGEGTLVTVSSASTKGPSVFPLAPSSKSTSGGTAALGCLVKDYFPEPVTVSWNSGALTSGVHTFPAVLQSSGLYSLSSVVTVPSSSLGTQTYICNVNHKPSNTKVDKKVEPKSCDKTHTCPPCPAPELLGGPSVFLFPPKPKDTLMISRTPEVTCVVVDVSHEDPEVKFNWYVDGVEVHNAKTKPREEQYNSTYRVVSVLTPLHQDWLNGKEYKCKVSNKALPAPVEKTISKAKGQPREPQVYTLPPSRDELTKNQVSLTCLVKGFYPSDIAVEWESNGQPENNYKTTPPVLDSDGSFFLYSKLTVDKSRWQQGNVFSCSVLHEALHSHYTQKSLSLSP light: not shown | 0.17
IgG1-F1375 (antibody) heavy: QVQLQESGPGLVKPSETLSLTCAVSGHSISHDHAWSWVRQPPGEGLEWIGFISYSGITNYNPSLQGRVTISRDNSKNTLYLQMNSLRAEDTAVYYCARSLARTTAMDYWGEGTLVTVSSASTKGPSVFPLAPSSKSTSGGTAALGCLVKDYFPEPVTVSWNSGALTSGVHTFPAVLQSSGLYSLSSVVTVPSSSLGTQTYICNVNHKPSNTKVDKKVEPKSCDKTHTCPPCPAPELRGGPKVFLFPPKPKDTLYITRTPEVTCVVVDVSHEDPEVKFNWYVDGVEVHNAKTKPREEQYNSTYRVVSVLTVLHQDWLNGKEYKCKVSNKALPAPIEKTISKAKGQPREPQVYTLPPSRDELTKNQVSLTCLVKGFYPSDIAVEWESNGQPENNYKTTPPVLDSDGSFFLYSKLTVDKSRWQQGNVFSCSVMHEALHYHVTQKSLSLSP light: not shown | 0.1
IgG1-F1367 (antibody) heavy: QVQLQESGPGLVKPSETLSLTCAVSGHSISHDHAWSWVRQPPGEGLEWIGFISYSGITNYNPSLQGRVTISRDNSKNTLYLQMNSLRAEDTAVYYCARSLARTTAMDYWGEGTLVTVSSASTKGPSVFPLAPSSKSTSGGTAALGCLVKDYFPEPVTVSWNSGALTSGVHTFPAVLQSSGLYSLSSVVTVPSSSLGTQTYICNVNHKPSNTKVDKKVEPKSCDKTHTCPPCPAPELRGGPKVFLFPPKPKDTLYITREPEVTCVVVDVSHEDPEVKFNWYVDGVEVHNAKTKPREEQYNSTYRVVSVLTVLHQDWLNGKEYKCKVSNKALPAPIEKTISKAKGQPREPQVYTLPPSRDELTKNQVSLTCLVKGFYPSDIAVEWESNGQPENNYKTTPPVLDSDGSFFLYSKLTVDKSRWQQGNVFSCSVMHEALHYHTTRKELSLSP light: not shown | 0.18
IgG1-F1366 (antibody) heavy: QVQLQESGPGLVKPSETLSLTCAVSGHSISHDHAWSWVRQPPGEGLEWIGFISYSGITNYNPSLQGRVTISRDNSKNTLYLQMNSLRAEDTAVYYCARSLARTTAMDYWGEGTLVTVSSASTKGPSVFPLAPSSKSTSGGTAALGCLVKDYFPEPVTVSWNSGALTSGVHTFPAVLQSSGLYSLSSVVTVPSSSLGTQTYICNVNHKPSNTKVDKKVEPKSCDKTHTCPPCPAPELRGGPKVFLFPPKPKDTLYISREPEVTCVVVDVSHEDPEVKFNWYVDGVEVHNAKTKPREEQYNSTYRVVSVLTVLHQDWLNGKEYKCKVSNKALPAPIEKTISKAKGQPREPQVYTLPPSRDELTKNQVSLTCLVKGFYPSDIAVEWESNGQPENNYKTTPPVLDSDGSFFLYSKLTVDKSRWQQGNVFSCSVMHEALDYHFTKKELSLSP light: not shown | 0.12
IgG1-F1372 (antibody) heavy: QVQLQESGPGLVKPSETLSLTCAVSGHSISHDHAWSWVRQPPGEGLEWIGFISYSGITNYNPSLQGRVTISRDNSKNTLYLQMNSLRAEDTAVYYCARSLARTTAMDYWGEGTLVTVSSASTKGPSVFPLAPSSKSTSGGTAALGCLVKDYFPEPVTVSWNSGALTSGVHTFPAVLQSSGLYSLSSVVTVPSSSLGTQTYICNVNHKPSNTKVDKKVEPKSCDKTHTCPPCPAPELRGGPKVFLFPPKPKDTLYITREPEVTCVVVDVSHEDPEVKFNWYVDGVEVHNAKTKPREEQYNSTYRVVSVLTVLHQDWLNGKEYKCKVSNKALPAPIEKTISKAKGQPREPQVYTLPPSRDELTKNQVSLTCLVKGFYPSDIAVEWESNGQPENNYKTTPPVLDSDGSFFLYSKLTVDKSRWQQGNVFSCSVMHEALDYHTTRKELSLSP light: not shown | 0.23

The next binders have a lower Kd than those just listed; values first:

Kd [µM] | Binder
0.091 | IgG1-F1376 (antibody) heavy: QVQLQESGPGLVKPSETLSLTCAVSGHSISHDHAWSWVRQPPGEGLEWIGFISYSGITNYNPSLQGRVTISRDNSKNTLYLQMNSLRAEDTAVYYCARSLARTTAMDYWGEGTLVTVSSASTKGPSVFPLAPSSKSTSGGTAALGCLVKDYFPEPVTVSWNSGALTSGVHTFPAVLQSSGLYSLSSVVTVPSSSLGTQTYICNVNHKPSNTKVDKKVEPKSCDKTHTCPPCPAPELRGGPKVFLFPPKPKDTLYITREPEVTCVVVDVSHEDPEVKFNWYVDGVEVHNAKTKPREEQYNSTYRVVSVLTVLHQDWLNGKEYKCKVSNKALPAPIEKTISKAKGQPREPQVYTLPPSRDELTKNQVSLTCLVKGFYPSDIAVEWESNGQPENNYKTTPPVLDSDGSFFLYSKLTVDKSRWQQGNVFSCSVMHEALHYHVTQKSLSLSP light: not shown
0.087 | IgG1-F1373 (antibody) heavy: QVQLQESGPGLVKPSETLSLTCAVSGHSISHDHAWSWVRQPPGEGLEWIGFISYSGITNYNPSLQGRVTISRDNSKNTLYLQMNSLRAEDTAVYYCARSLARTTAMDYWGEGTLVTVSSASTKGPSVFPLAPSSKSTSGGTAALGCLVKDYFPEPVTVSWNSGALTSGVHTFPAVLQSSGLYSLSSVVTVPSSSLGTQTYICNVNHKPSNTKVDKKVEPKSCDKTHTCPPCPAPELRGGPKVFLFPPKPKDTLYITREPEVTCVVVDVSHEDPEVKFNWYVDGVEVHNAKTKPREEQYNSTYRVVSVLTVLHQDWLNGKEYKCKVSNKALPAPIEKTISKAKGQPREPQVYTLPPSRDELTKNQVSLTCLVKGFYPSDIAVEWESNGQPENNYKTTPPVLDSDGSFFLYSKLTVDKSRWQQGNVFSCSVMHEALDYHFTKKELSLSP light: not shown
0.083 | IgG1-F1377 (antibody) heavy: QVQLQESGPGLVKPSETLSLTCAVSGHSISHDHAWSWVRQPPGEGLEWIGFISYSGITNYNPSLQGRVTISRDNSKNTLYLQMNSLRAEDTAVYYCARSLARTTAMDYWGEGTLVTVSSASTKGPSVFPLAPSSKSTSGGTAALGCLVKDYFPEPVTVSWNSGALTSGVHTFPAVLQSSGLYSLSSVVTVPSSSLGTQTYICNVNHKPSNTKVDKKVEPKSCDKTHTCPPCPAPELRGGPKVFLFPPKPKDTLYISREPEVTCVVVDVSHEDPEVKFNWYVDGVEVHNAKTKPREEQYNSTYRVVSVLTVLHQDWLNGKEYKCKVSNKALPAPIEKTISKAKGQPREPQVYTLPPSRDELTKNQVSLTCLVKGFYPSDIAVEWESNGQPENNYKTTPPVLDSDGSFFLYSKLTVDKSRWQQGNVFSCSVMHEALHYHVTQKSLSLSP light: not shown
0.059 | IgG1-F1415 (antibody) heavy: QVQLQESGPGLVKPSETLSLTCAVSGHSISHDHAWSWVRQPPGEGLEWIGFISYSGITNYNPSLQGRVTISRDNSKNTLYLQMNSLRAEDTAVYYCARSLARTTAMDYWGEGTLVTVSSASTKGPSVFPLAPSSKSTSGGTAALGCLVKDYFPEPVTVSWNSGALTSGVHTFPAVLQSSGLYSLSSVVTVPSSSLGTQTYICNVNHKPSNTKVDKKVEPKSCDKTHTCPPCPAPELRGGPKVFLFPPKPKDTLYITREPEVTCVVVDVSHEDPEVKFNWYVDGVEVHNAKTKPREEQYNSTYRVVSVLTVLHADWLNGKEYKCKVSNKALPAPIEKTISKAKGQPREPQVYTLPPSRDELTKNQVSLTCLVKGFYPSDIAVEWESNGQPENNYKTTPPVLDSDGSFFLYSKLTVDKSRWQQGNVFSCSVMHEALDYHVTKKELSLSP light: not shown
0.059 | IgG1-F1417 (antibody) heavy: QVQLQESGPGLVKPSETLSLTCAVSGHSISHDHAWSWVRQPPGEGLEWIGFISYSGITNYNPSLQGRVTISRDNSKNTLYLQMNSLRAEDTAVYYCARSLARTTAMDYWGEGTLVTVSSASTKGPSVFPLAPSSKSTSGGTAALGCLVKDYFPEPVTVSWNSGALTSGVHTFPAVLQSSGLYSLSSVVTVPSSSLGTQTYICNVNHKPSNTKVDKKVEPKSCDKTHTCPPCPAPELRGGPKVFLFPPKPKDTLYITREPEVTCVVVDVSHEDPEVKFNWYVDGVEVHNAKTKPREEQYNSTYRVVSVLTVLHQDWLNGKEYKCKVSNKALPAPIEKTISKAKGQPREPQVYTLPPSRDELTKNQVSLTCLVKGFYPSDIAVEWESNGQPENNYKTTPPVLDSDGSFFLYSKLTVDKSRWQQGNVFSCSVMHEALDWHVTKKELSLSP light: not shown
0.056 | IgG1-F1414 (antibody) heavy: QVQLQESGPGLVKPSETLSLTCAVSGHSISHDHAWSWVRQPPGEGLEWIGFISYSGITNYNPSLQGRVTISRDNSKNTLYLQMNSLRAEDTAVYYCARSLARTTAMDYWGEGTLVTVSSASTKGPSVFPLAPSSKSTSGGTAALGCLVKDYFPEPVTVSWNSGALTSGVHTFPAVLQSSGLYSLSSVVTVPSSSLGTQTYICNVNHKPSNTKVDKKVEPKSCDKTHTCPPCPAPELRGGPKVFLFPPKPKDTLYITREPEVTCVVVDVSHEDPEVKFNWYVDGVEVHNAKTKPREEQYNSTYRVVSVLQVLHQDWLNGKEYKCKVSNKALPAPIEKTISKAKGQPREPQVYTLPPSRDELTKNQVSLTCLVKGFYPSDIAVEWESNGQPENNYKTTPPVLDSDGSFFLYSKLTVDKSRWQQGNVFSCSVMHEALDYHVTKKELSLSP light: not shown
0.055 | IgG1-F1368 (antibody) heavy: QVQLQESGPGLVKPSETLSLTCAVSGHSISHDHAWSWVRQPPGEGLEWIGFISYSGITNYNPSLQGRVTISRDNSKNTLYLQMNSLRAEDTAVYYCARSLARTTAMDYWGEGTLVTVSSASTKGPSVFPLAPSSKSTSGGTAALGCLVKDYFPEPVTVSWNSGALTSGVHTFPAVLQSSGLYSLSSVVTVPSSSLGTQTYICNVNHKPSNTKVDKKVEPKSCDKTHTCPPCPAPELRGGPKVFLFPPKPKDTLYITREPEVTCVVVDVSHEDPEVKFNWYVDGVEVHNAKTKPREEQYNSTYRVVSVLTVLHQDWLNGKEYKCKVSNKALPAPIEKTISKAKGQPREPQVYTLPPSRDELTKNQVSLTCLVKGFYPSDIAVEWESNGQPENNYKTTPPVLDSDGSFFLYSKLTVDKSRWQQGNVFSCSVMHEALHYHFTKKELSLSP light: not shown
